# Test results: US11466286B2, “Methods and compositions for conferring and/or enhancing herbicide tolerance using protoporphyrinogen oxidase or variant thereof” (FarmHannong Co., Ltd., priority 2016, dated 2022)
# Substitutions are numbered along the chain they refer to. Names and notes keep the numbering of the source.
# B1: CyPPO13 F373N: CyPPO13 (SEQ ID NO: 4) PPO variant (protein)
# chain: MNPATPEPLNAEVVVIGAGISGLTLAWRLQQGLSARGGSPQAVLLAEASSRVGGCISTQSKDGYRWEEGPNSFTPTPALLNLIAEVGLTDQLVLADAKLPRYIYWEGALLPVPLSPAAALGSRLLSVGGKLRALQGLLGFVPPPPGHEETVRQFFRRQLGSEVAERLVEPFTSGVYAGDPDQLSAVAAFPRVAGLEERYGSLFAGALQALRQRPQPSPAAIQPPPKRGQLGNLRQGLQQLPEALAQKLGDSLRLGWRALQLKRAGELYWVGFETPEGSRWVAARQVVLALPAYEAAALLQELNPPASQLLAEILYPPVAVVALAYPQEALPQPLRGFGHLIPRSQGLRTLGTIWASCLFPERAPQGYHSFLSNLGGATDAALARRRGIPPIPALSPEERAQIAHAELSQVLLTRRAEPVYLGERLWPRAIPQYTLGHRQRIAQVQAHLASQTPGIWVCANYLDGVALGDCVRRAEALAQQLLSQV
# modifications: Synthetic CyPPO13
# B2: CyPPO13 R101A: CyPPO13 (SEQ ID NO: 4) PPO variant (protein)
# chain: B1 chain with R101A, N373F
# modifications: Synthetic CyPPO13
# B3: CyPPO13 A177L + F373V: CyPPO13 (SEQ ID NO: 4) PPO variant (protein)
# chain: B1 chain with A177L, N373V
# modifications: Synthetic CyPPO13
# B4: CyPPO13 G194E + F373M: CyPPO13 (SEQ ID NO: 4) PPO variant (protein)
# chain: B1 chain with G194E, N373M
# modifications: Synthetic CyPPO13
# B5: CyPPO13 E340T: CyPPO13 (SEQ ID NO: 4) PPO variant, printed E340T, probably L340T (protein)
# chain: B1 chain with L340T, N373F
# modifications: Synthetic CyPPO13
# B6: CyPPO13 F171A: CyPPO13 (SEQ ID NO: 4) PPO variant (protein)
# chain: B1 chain with F171A, N373F
# modifications: Synthetic CyPPO13
# B7: CyPPO13 V318M + F373M: CyPPO13 (SEQ ID NO: 4) PPO variant (protein)
# chain: B1 chain with V318M, N373M
# modifications: Synthetic CyPPO13
# B8: CyPPO13 A177L + F373T: CyPPO13 (SEQ ID NO: 4) PPO variant (protein)
# chain: B1 chain with A177L, N373T
# modifications: Synthetic CyPPO13
# B9: CyPPO13 A177C + F373M: CyPPO13 (SEQ ID NO: 4) PPO variant (protein)
# chain: B1 chain with A177C, N373M
# modifications: Synthetic CyPPO13
# B10: CyPPO13 G194M + F373M: CyPPO13 (SEQ ID NO: 4) PPO variant (protein)
# chain: B1 chain with G194M, N373M
# modifications: Synthetic CyPPO13
# B11: CyPPO13 A177C + F373T: CyPPO13 (SEQ ID NO: 4) PPO variant (protein)
# chain: B1 chain with A177C, N373T
# modifications: Synthetic CyPPO13
# B12: CyPPO13 I353T: CyPPO13 (SEQ ID NO: 4) PPO variant (protein)
# chain: B1 chain with I353T, N373F
# modifications: Synthetic CyPPO13
# B13: CyPPO13 G194R + F373M: CyPPO13 (SEQ ID NO: 4) PPO variant (protein)
# chain: B1 chain with G194R, N373M
# modifications: Synthetic CyPPO13
# B14: CyPPO13 A177L + F373M: CyPPO13 (SEQ ID NO: 4) PPO variant (protein)
# chain: B1 chain with A177L, N373M
# modifications: Synthetic CyPPO13
# B15: CyPPO13 V175L + F373M: CyPPO13 (SEQ ID NO: 4) PPO variant (protein)
# chain: B1 chain with V175L, N373M
# modifications: Synthetic CyPPO13
# B16: CyPPO13 A177I + F373M: CyPPO13 (SEQ ID NO: 4) PPO variant (protein)
# chain: B1 chain with A177I, N373M
# modifications: Synthetic CyPPO13
# B17: CyPPO13 G194K + F373M: CyPPO13 (SEQ ID NO: 4) PPO variant (protein)
# chain: B1 chain with G194K, N373M
# modifications: Synthetic CyPPO13
# B18: CyPPO13 A177C + F373V: CyPPO13 (SEQ ID NO: 4) PPO variant (protein)
# chain: B1 chain with A177C, N373V
# modifications: Synthetic CyPPO13
# B19: CyPPO13 F337V: CyPPO13 (SEQ ID NO: 4) PPO variant (protein)
# chain: B1 chain with F337V, N373F
# modifications: Synthetic CyPPO13
# B20: CyPPO13 A177L: CyPPO13 (SEQ ID NO: 4) PPO variant (protein)
# chain: B1 chain with A177L, N373F
# modifications: Synthetic CyPPO13
# B21: CyPPO13 V175C: CyPPO13 (SEQ ID NO: 4) PPO variant (protein)
# chain: B1 chain with V175C, N373F
# modifications: Synthetic CyPPO13
# B22: CyPPO13 V318M: CyPPO13 (SEQ ID NO: 4) PPO variant (protein)
# chain: B1 chain with V318M, N373F
# modifications: Synthetic CyPPO13
# B23: CyPPO13 G194Q + F373M: CyPPO13 (SEQ ID NO: 4) PPO variant (protein)
# chain: B1 chain with G194Q, N373M
# modifications: Synthetic CyPPO13
# B24: CyPPO13 R101A + F373M: CyPPO13 (SEQ ID NO: 4) PPO variant (protein)
# chain: B1 chain with R101A, N373M
# modifications: Synthetic CyPPO13
# Tested on: CyPPO13
# Assay: PPO enzyme activity and IC50 by herbicides, CyPPO13 wild type and variants (MBP-PPO fusion)
# Format: biochemical, Synechococcus sp. JA-3-3Ab
# Settings: PPO enzyme activity of CyPPO13 protein, wild type = 100
# Experimental: The enzyme activities of PPO protein and PPO protein variants were examined, and inhibition assay by PPO-inhibiting herbicides was conducted. It was confirmed that the PPO protein has low water-solubility, but in case of being expressed as a fusion protein with MBP (maltose binding protein) (MBP-PPO), the PPO protein is able to be stably expressed as water-soluble form. Therefore, the wild type and variant proteins which were expressed in the form of fusion protein with MBP were used in the present test (refer to FIG. 4).
# In order to express wild type genes and mutant genes of CyPPO10 and CyPPO13 (refer to Example 1 and Example 4), those genes were introduced to pMAL-c2X vector (refer to FIG. 5) respectively, and then cloned to BL21 (DE3) E. coli (CodonPlus).
# The enzyme activity of the purified wild type protein and variant proteins of CyPPO10 and CyPPO13 was measured by the following process.
# At first, a substrate of PPO protein, Protoporphyrinogen IX was synthesized. This process was performed in the space where nitrogen gas is streamed. 6 mg of protoporphyrin IX was dissolved in 20% (v/v) EtOH 20 ml, and stirred under dark condition for 30 minutes. The obtained protoporphyrinogen IX solution was put into a 15 ml screw tube in an amount of 800 and flushed with nitrogen gas for 5 minutes. To this, 1 g of sodium amalgam was added and vigorous shaking was performed for 2 minutes. The lid was open to exhaust hydrogen gas in the tube. Thereafter, the lid was closed and incubated for 3 minutes. The […] was filtered using syringe and cellulose membrane filter. To 600 μl of the obtained […], 2M MOPS [3-(N-morpholino)propanesulfonic acid] was added in an amount of approximately 300 thereby adjusting pH to 8.0. To determine the enzyme activity of PPO protein, a reaction mixture was prepared with the following composition (based on 10 ml): 50 mM Tris-Cl (pH 8.0); 50 mM NaCl; 0.04% (v/v) Tween 20; 40 mM glucose (0.072 g); 5 units glucose oxidase (16.6 mg); and 10 units catalase (1 μl).
# Two hundred microliters (200 μl) of reaction mixture containing a purified PPO protein were placed in 96 well plates, and preincubated for 30 min at room temperature to reduce the oxygen concentration by the reaction of glucose oxidase-catalase. The mineral oil was layered and then the reaction was initiated by adding the substrate, […], to a final concentration of 50 μM. The reaction proceeded at room temperature for 30 min and the fluorescence of protoporphyrin IX was measured using Microplate reader (Sense, Hidex) (excitation: 405 nm; emission: 633 nm). To calculate the PPO enzyme activity, protoporphyrinogen IX solution was kept open in the air to oxidize the solution (overnight). To this, 2.7N HCl was added, and the absorbance at 408 nm was measured. A standard curve was generated using standard protoporphyrin IX, and the PPO activity was measured by calibration of protoporphyrin IX using the standard curve of protoporphyrin IX.
# The final concentration of each herbicide was as follows: […]
row,Molecule,Activity (%)
1,B1,40
2,B2,87
3,B3,49
4,B4,32
5,B5,83
6,B6,70
7,B7,72
8,B8,62
9,B9,77
10,B10,43
11,B11,80
12,B12,62
13,B13,35
14,B14,75
15,B15,93
16,B16,75
17,B17,41
18,B18,56
19,B19,88
20,B20,97
21,B21,94
22,B22,81
23,B23,37
24,B24,55
